According to the DeepSol protein solubility set:

Experiment: soluble on expression in E. coli; label from the status in PepcDB or PDB records

Sequence | soluble on expression in E. coli
MSSNSPNSSNPAATDAPKKTSVEPGSEANNWHITEADEKGFKLTDMIKKLLKPVFSKAIMFDEKEIHVLLTRVFKYYTSPPNKKTAPSASASATTSMSPPKPAANALLELQAPINICGDTHGQYNDLLRIFNACGAATKTQYLFLGDYVDRGGHSLEVIMLLFSLKLAMPRKMHLLRGNHELKAINKNYGFHAELKKRFQREEVYESVYNHFNQVFSYMPLCAIVSKRILCMHGGISPHLKSLDDIRAIPLPLETAKTHPLACDLLWADPEKDAKGFEPNKIRAISNVFGKKEVDDLCKRLDIDLIVRAHQVVEYGYAFFADRRLITVFSASRYQIELCNYAAVVVVNKMLELSFVQLKPEDFEVRRDECEENAKDQTTSNVPH | not soluble
MSLDVTNRIERALTEALNQADMAGCPPRLAAAMRSAVFPRGARVRPRLCHSVALACGEDNPGITEAAGAALELMHCASLIHDDLPCFDGADLRRGRPSVHKAFGEPLAVLAGDAMIVLAFQTIARAEGQADRLLKLTQIIGGAVGVPFGIVAGQAWECETEINLAHYHRSKTGALFVAATAMGAASAGSDPEPWRMVGEKIGEAYQVADDLRDAAADVEEIGKPVGQDVAHDRPSAVREMGIDGAIYHLKSLVRGAVEAMPECTNGNELRSLIMSEATRLVPAEGHHHHHH | soluble
MTQFAFVFPGQGSQSVGMLAEMAANYPIVEETFAEASAALGYDLWALTQQGPAEELNKTWQTQPALLTASVALWRVWQQQGGKMPALMAGHSLGEYSALVCAGVINFADAVRLVEMRGKFMQEAVPEGTGGMSAIIGLDDASIAKACEESAEGQVVSPVNFNSPGQVVIAGHKEAVERAGAACKAAGAKRALPLPVSVPSHCALMKPAADKLAVELAKITFSAPTVPVVNNVDVKCETDAAAIRDALVRQLYNPVQWTKSVEFIAAQGVEHLYEVGPGKVLTGLTKRIVDTLTASALNEPAALSAALTQ | not soluble
MGSDKIHHHHHHMMDMTTRPTLQHFLSDTKHGPYVSLYMSWPENTSVEALRLRFKNMVKHTKSVMTETYPETDFSAYAAELEPYEQDPTFWQTCETNGFGMLTNGAQTYVTPMYEAVDEVAMVTDMPQILPLMLDEATATDFDILALNADSIQMYHNHGHQVRPISLPDDAPQTLKGTLGTEIRGGETNSVSQGGGRVTHHGHNEKSAEKASDQRRFYQAVDQYVLANHSNPHKMPLVLMGLAENVAVFREISKNHHLLPKLAVVKSPANLDFVELDDLLTPVRETLRDRRRQNFAEIIENARGNDSYTDHLEEVVQAAVAGRIAILFVQAGARIHARLEGTQIERDSINAQHANLLNDLADIVLSHGGQVELLTEAYLPVEVGAMVRYA | not soluble
MGSDKIHHHHHHMEKMTFGLIVGNREFFPDRLVEEGRERVIKVLEGMGYRVVTLSPSDTKLGAVETAKDAKKCAELFKEKAGEIDGIIVTLPNFGDEKGVAQAIRLSGLNVPVLVHAFPDDPEKLDLQNRRDSFCGKISVSNNLKQYGIEFSLTTLHTEDPESEVFKRDIEKFAAVCRIVKGMRNIKVGAIGARPSAFNTVRFSEKILERMSISVETVDLSEILHRVSNLKDDDERVRRKLEEIKKNYRLQIVPEEKILLMAKFGSVIDEWIEENDIKALAIQCWTSLEWNLGITPCTIMSLLNEKGKPAACEVDITGALSMYVLQLASGQPSAIVDWNNNYRDENETILFHCGNFPASIYEEKPEIKYADVIGTTVGKERAYGACAGKIKTSPFTFLRLTTDDNEGKVKAYVGEGQILDENPKTFGSRGVARIEKLQELMKYICENGFEHHVAINLSRVADAVKEALEKYLGIVVHKHNAEV | not soluble
MSDNDIIDDDVLNIEDMTGDDADLSAIEGDLNEIEEEQKKLKAIQNEMVGHMNLNTSSQSNSSQSLLTPEEKAEADAKSVYVGNVDYGATAEEIEQHFHGCGSVSRVTIQCDRFSGHPKGFAYVEFTEKEGMQNALAMTDSLLRGRQIKVDPKRTNKPGMSTTNRPPFRGRGGRGRGNVIVKYVYAGGFRPRGRGARRRPGFAPY | soluble
MAHHHHHHMTEGPLIVVGSVTLDQAARCYSPLSAPLRVRLEYAVLRPVVNPAWAATFEADIAYGRISVPLVQPTACSECMTPLNVPSSFLQHTPSDSIATLQPGELYQLDVHLETMELSKVEEKYVLQVGMLRLILLSGKTELADVNHVVQVKKNDDGELMRLIMNPLV | not soluble
PNLTEISKKITESNAVVLAVKEVETLLASIDELATKAIGKKIGNNGLEANQSKNTSLLSGAYAISDLIAEKLNVLKNEELKEKIDTAKQCSTEFTNKLKSEHAVLGLDNLTDDNAQRAILKKHANKDKGAAELEKLFKAVENLSKAAQDTLKNAVKELTSPIVA | soluble
GNDEIGELALAFNNLSKRVQEAQANTESEKRRLDSVITHMSDGIIATDRRGRIRIVNDMALKMLGMAKEDIIGYYMLSVLSLEDEFKLEEIQENNDSFLLDLNEEEGLIARVNFSTIVQETGFVTGYIAVLHD | not soluble
AHHHHHHGSYEVTKFGGEGKRLEDYREIIGDEALEAIKAKAENLKDKSFVHVNSTSFGGGVAEILHNLVPLMRDVGIDARWFVIEGTNEFFNVTKSFHNALQGNKELRLTEEMKKLYLEINKKNAEDIDLTQFDYVLIHDPQPAPLIEFYEKRQPWIWRCHIDLSDPNLEFWKFLRQFVEKYDRYIFHMEEYVQEDLNQEKVVIMPPSIDPLSEKNMELSESEILKTLERFDVDPERPIITQVARFDPWKGVFDVIDVYRKVKEKIPEVQLLLVGVMAHDDPEGWIYFEKTLRKIGEDYDIKVLTNLTGVHAREVNAFQRASDVILQMSIREGFGLTVTEAMWKEKPVVGRAVGGIKLQIVDGKTGFLVKDVNDAIEKTLYLLEHKDVAQEMGKNAKERIKENFIITKHLERYLDLLNSF | soluble
TTKKRVFHFGKGKSEGNKTMKELLGGKGANLAEMASIGLSVPPGFTVSTEACQQYQDAGCALPAGLWAEIVDGLQWVEEYMGATLGDPQRPLLLSVRSGAAVSMPGMMDTVLNLGLNDEVAAGLAAKSGERFAYDSFRRFLDMFGNVVMDIPRSLFEEKLEHMKESKGLKNDTDLTASDLKELVGQYKEVYLSAKGEPFPSDPKKQLELAVLAVFNSWESPRAKKYRSINQITGLRGTAVNVQCMVFGNMGNTSGTGVLFTRNPNTGEKKLYGEFLVNAQGEDVVAGIRTPEDLDAMKNLMPQAYDELVENCNILESHYKEMQDIEFTVQENRLWMLQCRTGKRTGKSAVKIAVDMVNEGLVEPRSAIKMVEPGHLDQLLHPQFENPSAYKDQVIATGLPASPGAAVGQVVFTAEDAEAWHSQGKAAILVRAETSPEDVGGMHAAVGILTERGGMTSHAAVVARGWGKCCVSGCSGIRVNDAEKLVTIGGHVLREGEWLSLNGSTGEVILGKQPLSPPALSGDLGTFMAWVDDVRKLKVLANADTPDDALTARNNGAQGIGLCRTEHMFFASDERIKAVRQMIMAPTLELRQQALDRLLPYQRSDFEGIFRAMDGLPVTIRLLDPPLHEFLPEGNIEDIVSELCAETGANQEDALARIEKLSEVNPMLGFRGCRLGISYPELTEMQARAIFEAAIAMTNQGVQVFPEIMVPLVGTPQELGHQVTLIRQVAEKVFANVGKTIGYKVGTMIEIPRAALVADEIAEQAEFFSFGTNDLTQMTFGYSRDDVGKFIPVYLAQGILQHDPFEVLDQRGVGELVKFATERGRKARPNLKVGICGEHGGEPSSVAFFAKAGLDYVSCSPFRVPIARLAAAQVLV | soluble
MLRLDTRFLPGFPEALSRHGPLLEEARRRLLAKRGEPGSMLGWMDLPEDTETLREVRRYREANPWVEDFVLIGIGGSALGPKALEAAFNESGVRFHYLDHVEPEPILRLLRTLDPRKTLVNAVSKSGSTAETLAGLAVFLKWLKAHLGEDWRRHLVVTTDPKEGPLRAFAEREGLKAFAIPKEVGGRFSALSPVGLLPLAFAGADLDALLMGARKANETALAPLEESLPLKTALLLHLHRHLPVHVFMVYSERLSHLPSWFVQLHDESLGKVDRQGQRVGTTAVPALGPKDQHAQVQLFREGPLDKLLALVIPEAPLEDVEIPEVEGLEAASYLFGKTLFQLLKAEAEATYEALAEAGQRVYALFLPEVSPYAVGWLMQHLMWQTAFLGELWEVNAFDQPGVELGKVLTRKRLAG | soluble
MGSDKIHHHHHHMNFKQLLIDNFTYKTSYIARQAQGMNVKETKDYIAVDCGLPADTFNIITLLNNNVTEGIEKLYKEVNNYNQKKFPMSVWFWDDRYEQTIKSELIKLDLKEAEQNIAMVAELNTIHPTINMPEGFTIQKASSPEQIKKFGETLANLFGSSEEGIHVQAFYNQTASFDLWNSGNMNLYLGLYKDEVISVGSLVCTKDSIGIYDIATKEEMRGKGFGSTMFHYLLQEAKALNVAQCVLQASPDGINIYKKAGFQSVGQMTVFENRHLFE | not soluble
MAVTQSPRNKVAVTGGKVTLSCNQTNNHNNMYWYRQDTGHGLRLIHYSYGAGSTEKGDIPDGYKASRPSQENFSLILELATPSQTSVYFCASGDLGQTNERLFFGHGTKLSVLGSADDAKKDAAKKDGQVRQSPQSLTVWEGETAILNCSYENSAFDYFPWYQQFPGEGPALLISILSVSDKKEDGRFTIFFNKREKKLSLHIADSQPGDSATYFCAAIDTNAYKVIFGKGTHLHVLP | soluble
MLVKPPYSYIALITMAIQNAPEKKITLNGIYQFIMDRFPFYRENKQGWQNSIRHNLSLNECFVKVPRDDKKPGKGSYWTLDPDSYNMFENGSFL | soluble
GPGSMMEPTRNAEYSKQEYWDRRYTEEEHYDWFPSVYPMCVAAAFETVEAVYRVQRSTGAFNGTLKVLHLGTGNSTLCADIRATYEAKYPTEDSRPYRLVQAATDYSAVVIDRMQAKYGLAHPLEDVHWVVADIRDLSRVREQFGPFFDVVLDKGTMDALQADKANQNMEDDIERMLCEVSRCVEGGAGTRVYRVFVQITWEIPYLRLYYTTRNATHTFAWGTNVTYRFLGESDMYRVYTYEVSPPSSE | soluble
MGSDKIHHHHHHMKKRFKYRTLEEMRWEAITLGIDLPLSGDFDVFRDLVDLGSKTIPNRFVDQPMEGNDAQLDGTPGPLTLRRYRKLAEGGAGVIWVEAIAVSREARGNDRQLMLTEETVNSFRSFVAEIKSVSLKTKNFEPYIVAQLTHPGRFGKNRKILFHDKFLDEKYGITEDFPLMSDEELDSLKEQYLRAAKFAKTAGFDAVDIKACHRYLLSELLAAHTREGKYGGSYENRTKLLKDIVRLVRKEVEIDITVRLNLSDFIPYPYGWGSTEEGTLDFTEPGRLLKELEELGVKIINVTASTPYLKPHINRPYDEMGKYNPPEHPIVGAMRLLNLAKLAKETLSKTLVVASGFTWFRQFAPYVAAGMLKNGWCDFVGFGRMTFAYPDYPKDILTKGELDPKKVCITCNKCAELKAAGESCGCVVRDGEVYLPIYRKMEESKKS | not soluble
AQELQTANEFTVHTDLSSISSTRAFLKEKHKAAKHIGVRADIPFDANQGIRLEAGFGRSKKNIINLETDENKLGKTKNVKLPTGVPENRIDLYTGYTYTQTLSDSLNFRVGAGLGFESSKDSIKTTKHTLHSSRQSWLAKVHADLLSQLGNGWYINPWSEVKFDLNSRYKLNTGVTNLKKDINQKTNGWGFGLGANIGKKLGESASIEAGPFYKQRTYKESGEFSVTTKSGDVSLTIPKTSIREYGLRVGIKF | soluble
GPGSMSFYRTKKVIINSLFSDSSWYCTFRFRNPMTSQRRSCHEGIPSGRVTGNSVTLLSEMRENNAIGVEAVGKERKRPDAMTVLSNVFRTNPAALRLHRELTICIASGETERASDLASVLAGLVKRTTRLDDIEQKCAEEGGRSKVPNDPVPVVGEETVEFLTSNVVRGVSSQSRLESIEILHNDAPGAPYLGEKVAEAAEVKDSEPLPFWKNPDALRLTLLESAFEMALADDNENPLQPGSVEADCLEKERMEILDAYLKREGKRWELQKAAVARAIVATVKDLGVVPEDIHAALQAEGELRLNGSDKRFNVLKHCNIIVRGEVPEVMELQMKGTATRNVEASVSQELDVLINRMSSTGTPLSQRDKDLALFELVMSKSKMRYVVGLHRELQVALDTAPALRKLAVEHRAKSGSVLFVERALKMLNKVAPDGSETTAEDVECIDTISTPVLPFTFMLKMCLWFEAPVAM | not soluble
